# Biological target: NELF complex WT (NELF-A/B/D/E) (human, UniProt Q9H3P2;Q8WX92;Q8IXH7;P18615 1-528;1-628;1-590;1-380)
# Test: fluorescence anisotropy
binder,measurement,value
CCAGAUCUGAGCCUGGGAGCUCUCUGG (structured_RNA) [HIV-1 TAR stem loop],binding result,binds

# From publication doi:10.1101/2024.08.29.610268
